B1: Hairpin Ribozyme (parent)
chain: GUCCUCUUUCACGUGCGCGUGAAAGAGAGAAGUGAACCAGAGAAACACACGUUGUGGUAUAUUACCUGGUA

Variants of: B1
Assay: self-cleavage, relative activity (ratio to wild type); higher = more cleavage; co-transcriptional
Variant U2A C18G has a self-cleavage of 0.212.
With U2A C37U the self-cleavage was 0.23.
Variant U2A C38U has a self-cleavage of 0.14.
U2A C46A showed a self-cleavage of 0.143.
Variant U2A C50A has a self-cleavage of 0.219.
U2A C65A showed a self-cleavage of 0.222.
U2A C66G gave a self-cleavage of 0.161.
Variant U2A C66U has a self-cleavage of 0.127.
Variant U2A G15A has a self-cleavage of 0.216.
In the case of U2A G17A, the self-cleavage is reported as 0.274.
For U2A G19A, the self-cleavage was 0.216.
Variant U2A G19C has a self-cleavage of 0.106.
For U2A G21U, the self-cleavage was 0.271.
U2A G25C gave a self-cleavage of 0.171.
U2A G27U showed a self-cleavage of 0.124.
With U2A G29A the self-cleavage was 0.0918.
In the case of U2A G29C, the self-cleavage is reported as 0.105.
Variant U2A G32A has a self-cleavage of 0.0985.
In the case of U2A G51U, the self-cleavage is reported as 0.228.
Work on U2A G54U yielded a self-cleavage of 0.119.
Variant U2A G57A has a self-cleavage of 0.136.
In the case of U2A G68A, the self-cleavage is reported as 0.0992.
U2A G68U gave a self-cleavage of 0.133.
Variant U2A G69U has a self-cleavage of 0.151.
U2A U9C showed a self-cleavage of 0.233.
U2A U9G showed a self-cleavage of 0.179.
For U2A U33A, the self-cleavage was 0.077.
For U2A U52G, the self-cleavage was 0.203.
For U2A U53A, the self-cleavage was 0.303.
Work on U2A U53C yielded a self-cleavage of 0.292.
U2A U55A showed a self-cleavage of 0.103.
With U2A U60A the self-cleavage was 0.175.
With U2A U62A the self-cleavage was 0.194.
For U2A U62C, the self-cleavage was 0.0796.
In the case of U2A U63G, the self-cleavage is reported as 0.0633.
In the case of U2A U67C, the self-cleavage is reported as 0.0778.
Work on U2A U67G yielded a self-cleavage of 0.158.
Work on U2A U70A yielded a self-cleavage of 0.331.
Variant U2A U70G has a self-cleavage of 0.224.
Variant U2C has a self-cleavage of 0.171.
Work on U2C A11U yielded a self-cleavage of 0.197.
Variant U2C A22U has a self-cleavage of 0.296.
In the case of U2C A23G, the self-cleavage is reported as 0.116.
U2C A23U showed a self-cleavage of 0.185.
Variant U2C A24C has a self-cleavage of 0.227.
U2C A24U gave a self-cleavage of 0.107.
In the case of U2C A26C, the self-cleavage is reported as 0.0664.
For U2C A26G, the self-cleavage was 0.121.
Work on U2C A28U yielded a self-cleavage of 0.0802.
Work on U2C A31G yielded a self-cleavage of 0.
For U2C A31U, the self-cleavage was 0.25.
U2C A36G gave a self-cleavage of 0.212.
U2C A41U gave a self-cleavage of 0.283.
In the case of U2C A43G, the self-cleavage is reported as 0.167.
Variant U2C A45C has a self-cleavage of 0.0982.
In the case of U2C A45G, the self-cleavage is reported as 0.0514.
In the case of U2C A47C, the self-cleavage is reported as 0.0817.
Work on U2C A61G yielded a self-cleavage of 0.0293.
For U2C A71G, the self-cleavage was 0.125.
In the case of U2C A71U, the self-cleavage is reported as 0.2.
For U2C C3A, the self-cleavage was 0.114.
U2C C4A gave a self-cleavage of 0.1.
In the case of U2C C4G, the self-cleavage is reported as 0.0947.
Work on U2C C4U yielded a self-cleavage of 0.0249.
With U2C C16A the self-cleavage was 0.0439.
Work on U2C C37U yielded a self-cleavage of 0.113.
With U2C C46G the self-cleavage was 0.0408.
In the case of U2C C48G, the self-cleavage is reported as 0.108.
For U2C C48U, the self-cleavage was 0.0586.
Variant U2C G13A has a self-cleavage of 0.217.
In the case of U2C G15A, the self-cleavage is reported as 0.126.
Work on U2C G15U yielded a self-cleavage of 0.117.
Work on U2C G17U yielded a self-cleavage of 0.1.
U2C G21A showed a self-cleavage of 0.0868.
Work on U2C G29A yielded a self-cleavage of 0.0747.
U2C G32U showed a self-cleavage of 0.183.
With U2C G42C the self-cleavage was 0.108.
With U2C G54A the self-cleavage was 0.134.
Variant U2C G56C has a self-cleavage of 0.166.
With U2C G57A the self-cleavage was 0.175.
Work on U2C G69U yielded a self-cleavage of 0.114.
U2C U5A gave a self-cleavage of 0.118.
U2C U7A gave a self-cleavage of 0.119.
With U2C U8C the self-cleavage was 0.236.
For U2C U14G, the self-cleavage was 0.075.
With U2C U20A the self-cleavage was 0.25.
U2C U20G showed a self-cleavage of 0.0615.
In the case of U2C U52A, the self-cleavage is reported as 0.287.
Work on U2C U52C yielded a self-cleavage of 0.0386.
U2C U52G showed a self-cleavage of 0.0756.
U2C U53A showed a self-cleavage of 0.322.
U2C U55A gave a self-cleavage of 0.0763.
U2C U58A gave a self-cleavage of 0.235.
Variant U2C U62G has a self-cleavage of 0.0944.
U2C U63A gave a self-cleavage of 0.115.
U2C U67A gave a self-cleavage of 0.0712.
Variant U2G has a self-cleavage of 0.348.
In the case of U2G A11C, the self-cleavage is reported as 0.267.
U2G A11G gave a self-cleavage of 0.306.
U2G A11U showed a self-cleavage of 0.295.
Work on U2G A23C yielded a self-cleavage of 0.289.
U2G A23G showed a self-cleavage of 0.318.
U2G A26C showed a self-cleavage of 0.153.
Work on U2G A26U yielded a self-cleavage of 0.238.
For U2G A28G, the self-cleavage was 0.138.
With U2G A28U the self-cleavage was 0.32.
Work on U2G A35C yielded a self-cleavage of 0.477.
In the case of U2G A35G, the self-cleavage is reported as 0.213.
For U2G A36U, the self-cleavage was 0.318.
In the case of U2G A39G, the self-cleavage is reported as 0.179.
U2G A39U gave a self-cleavage of 0.162.
In the case of U2G A41G, the self-cleavage is reported as 0.38.
Variant U2G A43C has a self-cleavage of 0.115.
With U2G A44U the self-cleavage was 0.0754.
In the case of U2G A45G, the self-cleavage is reported as 0.118.
Work on U2G A61U yielded a self-cleavage of 0.191.
Work on U2G A71U yielded a self-cleavage of 0.283.
With U2G C3G the self-cleavage was 0.785.
In the case of U2G C4G, the self-cleavage is reported as 0.165.
Variant U2G C10A has a self-cleavage of 0.258.
Work on U2G C12A yielded a self-cleavage of 0.304.
With U2G C12U the self-cleavage was 0.321.
U2G C18U gave a self-cleavage of 0.378.
Variant U2G C38U has a self-cleavage of 0.24.
U2G C46G gave a self-cleavage of 0.12.
In the case of U2G C50A, the self-cleavage is reported as 0.15.
U2G C66A showed a self-cleavage of 0.147.
Variant U2G G15C has a self-cleavage of 0.342.
Work on U2G G15U yielded a self-cleavage of 0.395.
For U2G G19C, the self-cleavage was 0.338.
Work on U2G G25A yielded a self-cleavage of 0.224.
Variant U2G G25U has a self-cleavage of 0.359.
With U2G G27C the self-cleavage was 0.112.
U2G G29U gave a self-cleavage of 0.137.
With U2G G32A the self-cleavage was 0.0684.
U2G G32C gave a self-cleavage of 0.155.
With U2G G32U the self-cleavage was 0.119.
In the case of U2G G34U, the self-cleavage is reported as 0.984.
Work on U2G G40C yielded a self-cleavage of 0.126.
Variant U2G G40U has a self-cleavage of 0.072.
For U2G G42U, the self-cleavage was 0.0398.
U2G G54U gave a self-cleavage of 0.128.
In the case of U2G G56A, the self-cleavage is reported as 0.0909.
In the case of U2G G57A, the self-cleavage is reported as 0.169.
With U2G G68A the self-cleavage was 0.166.
With U2G G68C the self-cleavage was 0.135.
In the case of U2G G68U, the self-cleavage is reported as 0.2.
Work on U2G U5A yielded a self-cleavage of 0.288.
U2G U5C showed a self-cleavage of 0.271.
U2G U8G showed a self-cleavage of 0.471.
In the case of U2G U14C, the self-cleavage is reported as 0.277.
Variant U2G U33C has a self-cleavage of 0.0578.
U2G U33G showed a self-cleavage of 0.171.
For U2G U52A, the self-cleavage was 0.33.
For U2G U52C, the self-cleavage was 0.346.
For U2G U52G, the self-cleavage was 0.458.
U2G U53G showed a self-cleavage of 0.267.
U2G U55C showed a self-cleavage of 0.168.
Work on U2G U60C yielded a self-cleavage of 0.373.
For U2G U62A, the self-cleavage was 0.0977.
With U2G U63C the self-cleavage was 0.142.
With U2G U63G the self-cleavage was 0.252.
Work on U2G U67G yielded a self-cleavage of 0.194.
U2G U70A gave a self-cleavage of 0.191.
In the case of C3A A11U, the self-cleavage is reported as 0.517.
C3A A22G gave a self-cleavage of 0.706.
In the case of C3A A22U, the self-cleavage is reported as 0.702.

Source: the RNAGym collection of RNA variant scans (doi:10.7554/elife.80360)
